Publication PMC3402474 (PLoS ONE, 2012)

B1: Bmh1 (natural protein, S. cerevisiae, UniProt P29311 1-267, looked up)
chain: MSTSREDSVYLAKLAEQAERYEEMVENMKTVASSGQELSVEERNLLSVAYKNVIGARRASWRIVSSIEQKEESKEKSEHQVELICSYRSKIETELTKISDDILSVLDSHLIPSATTGESKVFYYKMKGDYHRYLAEFSSGDAREKATNASLEAYKTASEIATTELPPTHPIRLGLALNFSVFYYEIQNSPDKACHLAKQAFDDAIAELDTLSEESYKDSTLIMQLLRDNLTLWTSDMSESGQAEDQQQQQQHQQQQPPAAAEGEAPK
notes: also called yeast 14-3-3 protein Bmh1; recombinant Bmh1
B3: Bmh2 (natural protein, S. cerevisiae, UniProt P34730 1-273, looked up)
chain: MSQTREDSVYLAKLAEQAERYEEMVENMKAVASSGQELSVEERNLLSVAYKNVIGARRASWRIVSSIEQKEESKEKSEHQVELIRSYRSKIETELTKISDDILSVLDSHLIPSATTGESKVFYYKMKGDYHRYLAEFSSGDAREKATNSSLEAYKTASEIATTELPPTHPIRLGLALNFSVFYYEIQNSPDKACHLAKQAFDDAIAELDTLSEESYKDSTLIMQLLRDNLTLWTSDISESGQEDQQQQQQQQQQQQQQQQQAPAEQTQGEPTK
notes: also called yeast 14-3-3 protein Bmh2; recombinant Bmh2

Experiments:
dynamic light scattering = target: the molecule itself; test: dynamic light scattering
Bmh2 [1] = target: B3; test: SPR; conditions: both partners purified
Bmh1 [2] = target: B1; test: SPR; conditions: both partners purified
Bmh2 [3] = target: B3; test: SPR; BiacoreX, 25°C; recombinant Bmh1 or Bmh2 in 50 mM Tris (pH 7.5), 150 mM NaCl, 0.1 mM CaCl2 immobilized to CM5 chips; 2 µM sPLA2 injected; dissociation monitored 180 s; responses corrected for surface density and molecular weights; conditions: both partners purified
Bmh1 [4] = target: B1; test: as above; conditions: both partners purified

B1
stoichiometry N (dynamic light scattering): 2

B2: ammodytin L (natural protein)
chain: SVIEFGKMIQEETDKNPLTSYSFYGCHCGLGNKGKPKDATDRCCFVHSCCYAKLPDCSPKTNRYEYHRENGAIVCGSSTPCKKQICECDRAAAICFRENLKTYNKKYKVYLRFKCKGVSEKC
binding result (Bmh2 [1]): binds | binding result (Bmh1 [2]): binds

B3
stoichiometry N (dynamic light scattering): 2

B4: ammodytoxin A (enzyme)
chain: SLLEFGMMILGETGKNPLTSYSFYGCYCGVGGKGTPKDATDRCCFVHDCCYGNLPDCSPKTDRYKYHRENGAIVCGKGTSCENRICECDRAAAICFRKNLKTYNYIYRNYPDFLCKKESEKC
binding result (Bmh2 [1]): binds | binding result (Bmh1 [2]): binds

B5: ammodytoxin B (enzyme)
chain: SLLEFGMMILGETGKNPLTSYSFYGCYCGVGGKGTPKDATDRCCFVHDCCYGNLPDCSPKTDRYKYHRENGAIVCGKGTSCENRICECDRAAAICFRKNLKTYNHIYMYYPDFLCKKESEKC
notes: also called AtxB
binding result (Bmh2 [3]): binds | binding result (Bmh1 [4]): binds

B6: ammodytoxin C (enzyme)
chain: SLLEFGMMILGETGKNPLTSYSFYGCYCGVGGKGTPKDATDRCCFVHDCCYGNLPDCSPKTDRYKYHRENGAIVCGKGTSCENRICECDRAAAICFRKNLKTYNYIYRNYPDILCKEESEKC
notes: also called AtxC
binding result (Bmh2 [3]): binds | binding result (Bmh1 [4]): binds
